The text below walks through data of paper PMC5745072.

A short description of this data set: Hampton Screens I and II, vapor diffusion. Conditions: glycan lost; control: glycosylated GOx from P. pastoris.

B1: Glucose oxidase (GOx), mutants A2 and F9: Endo H (protein)
parent chain: MQTLLVSSLVVSLAAALPHYIRSNGIEASLLTDPKDVSGRTVDYIIAGGGLTGLTTAARLTENPNISVLVIESGSYESDRGPIIEDLNAYGDIFGSSVDHAYETVELATNNQTALIRSGNGLGGSTLVNGGTWTRPHKAQVDSWETVFGNEGWNWDNVAAYSLQAERARAPNAKQIAAGHYFNASCHGVNGTVHAGPRDTGDDYSPIVKALMSAVEDRGVPTKKDFGCGDPHGVSMFPNTLHEDQVRSDAAREWLLPNYQRPNLQVLTGQYVGKVLLSQNGTTPRAVGVEFGTHKGNTHNVYAKHEVLLAAGSAVSPTILEYSGIGMKSILEPLGIDTVVDLPVGLNLQDQTTATVRSRITSAGAGQGQAAWFATFNETFGDYSEKAHELLNTKLEQWAEEAVARGGFHNTTALLIQYENYRDWIVNHNVAYSELFLDTAGVASFDVWDLLPFTRGYVHILDKDPYLHHFAYDPQYFLNELDLLGQAAATQLARNISNSGAMQTYFAGETIPGDNLAYDADLSAWTEYIPYHFRPNYHGVGTCSMMPKEMGGVVDNAARVYGVQGLRVIDGSIPPTQMSSHVMTVFYAMALKISDAILEDYASMQ
Turning to B1, the “other: crystallisability” value is on record as “increases”.
